Measurements: patent US8410045B2, “Camptothecin-peptide conjugates and pharmaceutical compositions containing the same” (Drais Pharmaceuticals, Inc., priority 2006, dated 2013)
Where two headings read alike, the source gives them in different places. Where a SMILES comes first, the peptide text is derived from it. Where no end group is shown, it is not given here. Side-chain parts run from the residue outwards. [ ]: non-standard residue; d: D form. The star is where a group is joined. ξ: configuration not given here. X9 = CCc1c2c(nc3ccc(OC(=O)[C@H]4CC[C@H](CNC(=O)CCOCCOCCOCCOCCNC(=O)CCN5C(=O)CC(*)C5=O)CC4)cc13)-c1cc3c(c(=O)n1C2)COC(=O)[C@]3(O)CC; X6 = CCc1c2c(nc3ccc(OC(=O)[C@H]4CC[C@H](CNC(=O)C5CCC(CN6C(=O)CC(*)C6=O)CC5)CC4)cc13)-c1cc3c(c(=O)n1C2)COC(=O)[C@]3(O)CC; X7 = CCc1c2c(nc3ccc(OC(=O)CCCCCCCCCCN4C(=O)CC(*)C4=O)cc13)-c1cc3c(c(=O)n1C2)COC(=O)[C@]3(O)CC; X5 = CCc1c2c(nc3ccc(OC(=O)CCN4C(=O)CC(*)C4=O)cc13)-c1cc3c(c(=O)n1C2)COC(=O)[C@]3(O)CC; X8 = CC[C@@]1(O)C(=O)OCc2c1cc1n(c2=O)Cc2cc3cc(OC(=O)CCN4C(=O)CC(*)C4=O)ccc3nc2-1; SN38 = active drug (irinotecan metabolite) conjugated via the linker; MIC = not defined here; ξC = NC(CS)C(=O)O

Key:
[1] = Stability of conjugates in citrated plasma at 37° C. (half life time, HPLC fluorescence); format: in vitro ADME; conditions: dog, read-out: Dog Plasma Half life time
Protocol: (§1) The stability of the conjugates was tested in citrated plasma (10% (v/v) sodium citrate buffer, 0.106M) from different species (see Table 1 below). The conjugates at 2.55 μM were incubated at 37° C. in plasma. Samples were analysed using the HPLC fluorescence method described below (see chromatographic equipment and conditions) following TFA/acetonitrile extraction and the amount of free camptothecin, analogs or derivatives thereof (e.g. SN38) released by the conjugates was measured.
(§2) Chromatographic equipment and conditions: 150 μL of each sample were placed in 1.5 mL micro-centrifuge tubes. 450 μL of 5% (v/v) TFA in H2O was added to each tube and the mixture was vortexed for 5 seconds. Samples were then centrifuged at 16000 g, 3 minutes at +4° C. 100 μL of supernatant were placed in 1.5 mL micro-centrifuge tubes. Methanol (100 μL) was then immediately added and vortexed for 5 seconds. Samples were then centrifuged at 16000 g, 3 minutes at room temperature. 150 μL of supernatant were recovered for HPLC analysis. Conjugates, metabolites and camptothecin derivative (i.e. SN38) were separated by high-performance liquid chromatography (HPLC; Agilent 1100 series equipped with a fluorescence detector) using a 4.6×100 mm ([…] particle size) Luna C18(2) column (Phenomenex ref. 00D-4251-E0, Le Pecq, France). The aqueous component of the mobile phase (A) was 0.1% (v/v) TFA in water. The organic modifier (B) was acetonitrile containing 0.1% (v/v) TFA. For the conjugate and its metabolites an elution gradient increasing linearly the proportion of B from 15 to 37% in 2 min, from 37 to 47% in 6 min, followed by 2 min at 90% was applied with a constant flow rate of 1.2 mL/min. The proportion of B was then returned to the initial condition for 3.0 min.
(§3) The half life time of conjugate corresponds to the time necessary to have 50% by mole of free camptothecin, analogs or derivatives thereof released by the conjugates of the invention. In human plasma, the half life time of conjugate DPV1047-linker #1-SN38 (less than 5 mins) was shorter than that of conjugate DPV1047-linker #2-SN38 (6-7 mins), which, in turn, was shorter than that of conjugate DPV1047-linker #3-SN38 (12 mins).
(§4) As in Example II, the stability of these conjugates was tested in either human or dog plasma. Following incubation at 37° C., samples were analyzed after a TFA acetonitrile extraction by the HPLC fluorescence method described in Example II. The in vitro cytotoxicity (IC50) of these compounds was also evaluated.

[2] = as above; format: in vitro ADME, human; conditions: for half-life: human, plasma
Protocol: as §1, §2, §3, §4

[3] = test system: HCT 116 human colorectal carcinoma tumor
[4] = Table 10, SN38 conjugates, read-out: Human Plasma Half life time
[5] = DPV1047-linker-SN38, 2.55 μM, citrated plasma, read-out: Half life time, Human plasma
[6] = Table 14, 10-Hydroxycamptothecin conjugates
[7] = Table 14, 10-Hydroxycamptothecin conjugates, read-out: Human Plasma Half life time
[8] = DPV1047-linker-SN38, 2.55 μM, citrated plasma

## CCc1c2c(nc3ccc(OC(=O)[C@H]4CC[C@H](CNC(=O)C5CCC(CN6C(=O)CC(SC[C@H](NC(=O)[C@H](CCC(N)=O)NC(=O)[C@@H]7CCCN7C(=O)[C@@H]7CCCN7C(=O)[C@H](CCCNC(=N)N)NC(=O)[C@H](CCCNC(=N)N)NC(=O)[C@H](CCCNC(=N)N)NC(=O)[C@H](CCC(N)=O)NC(=O)[C@H](CCCNC(=N)N)NC(=O)[C@H](CCCNC(=N)N)NC(=O)[C@H](CCCCN)NC(=O)[C@H](CCCCN)NC(=O)[C@H](CCCNC(=N)N)NC(=O)CN)C(=O)O)C6=O)CC5)CC4)cc13)-c1cc3c(c(=O)n1C2)COC(=O)[C@]3(O)CC (stereo partly drawn) [Tat-linker #5-SN38]
[1]; Table 10, SN38 conjugates
  half-life: 122 min
[2]; [4]
  half-life: 335 min

## CCc1c2c(nc3ccc(OC(=O)[C@H]4CC[C@H](CNC(=O)CCOCCOCCOCCOCCNC(=O)CCN5C(=O)CC(SC[C@H](N)C(=O)N[C@H](C(=O)N[C@@H](CCCCN)C(=O)N[C@@H](CCCNC(=N)N)C(=O)NCC(=O)N[C@@H](CC(C)C)C(=O)N[C@@H](CCCCN)C(=O)N[C@@H](CC(C)C)C(=O)N[C@@H](CCCNC(=N)N)C(=O)N[C@@H](Cc6c[nH]cn6)C(=O)N[C@H](C(=O)N[C@@H](CCCNC(=N)N)C(=O)N6CCC[C@H]6C(=O)N[C@@H](CCCNC(=N)N)C(=O)N[C@H](C(=O)N[C@H](C(=O)N[C@@H](CCCNC(=N)N)C(=O)N[C@@H](CCSC)C(=O)N[C@@H](CC(=O)O)C(=O)N[C@H](C(=O)O)C(C)C)[C@@H](C)O)C(C)C)C(C)C)C(C)C)C5=O)CC4)cc13)-c1cc3c(c(=O)n1C2)COC(=O)[C@]3(O)CC (stereo partly drawn) [DPV1047-linker #6-SN38] (H-C(X9)VKRGLKLRHVRPRVTRMDV-OH; N-terminus and C-terminus assumed)
[2]; [5]
  half-life: 30 min

## CC[C@@]1(O)C(=O)OCc2c1cc1n(c2=O)Cc2cc3cc(OC(=O)CCN4C(=O)CC(SC[C@H](N)C(=O)N[C@H](C(=O)N[C@@H](CCCCN)C(=O)N[C@@H](CCCNC(=N)N)C(=O)NCC(=O)N[C@@H](CC(C)C)C(=O)N[C@@H](CCCCN)C(=O)N[C@@H](CC(C)C)C(=O)N[C@@H](CCCNC(=N)N)C(=O)N[C@@H](Cc5c[nH]cn5)C(=O)N[C@H](C(=O)N[C@@H](CCCNC(=N)N)C(=O)N5CCC[C@H]5C(=O)N[C@@H](CCCNC(=N)N)C(=O)N[C@H](C(=O)N[C@H](C(=O)N[C@@H](CCCNC(=N)N)C(=O)N[C@@H](CCSC)C(=O)N[C@@H](CC(=O)O)C(=O)N[C@H](C(=O)O)C(C)C)[C@@H](C)O)C(C)C)C(C)C)C(C)C)C4=O)ccc3nc2-1 (stereo partly drawn) [DPV1047-linker #1-10 Hydroxycamptothecin] (H-C(X8)VKRGLKLRHVRPRVTRMDV-OH)
[1]; [6]
  half-life: 3 min
[2]; [7]
  half-life: < 3 min

## CCc1c2c(nc3ccc(OC(=O)CCN4C(=O)CC(SC[C@H](N)C(=O)N[C@H](C(=O)N[C@@H](CCCCN)C(=O)N[C@@H](CCCNC(=N)N)C(=O)NCC(=O)N[C@@H](CC(C)C)C(=O)N[C@@H](CCCCN)C(=O)N[C@@H](CC(C)C)C(=O)N[C@@H](CCCNC(=N)N)C(=O)N[C@@H](Cc5c[nH]cn5)C(=O)N[C@H](C(=O)N[C@@H](CCCNC(=N)N)C(=O)N5CCC[C@H]5C(=O)N[C@@H](CCCNC(=N)N)C(=O)N[C@H](C(=O)N[C@H](C(=O)N[C@@H](CCCNC(=N)N)C(=O)N[C@@H](CCSC)C(=O)N[C@@H](CC(=O)O)C(=O)N[C@H](C(=O)O)C(C)C)[C@@H](C)O)C(C)C)C(C)C)C(C)C)C4=O)cc13)-c1cc3c(c(=O)n1C2)COC(=O)[C@]3(O)CC (stereo partly drawn) [DPV1047-linker #1-SN38] (H-C(X5)VKRGLKLRHVRPRVTRMDV-OH)
[1]; Table 10, SN38 conjugates
  half-life: 11.3 min
[2]; [8]
  Half life time, Human plasma: <5 min
[2]; [5]
  half-life: < 5 min
[2]; [4]
  half-life: < 3 min

## CCc1c2c(nc3ccc(OC(=O)[C@H]4CC[C@H](CNC(=O)C5CCC(CN6C(=O)CC(SCC(N)C(=O)N[C@H](CCCCN)C(=O)N[C@H](CCCNC(=N)N)C(=O)NCC(=O)N[C@H](CC(C)C)C(=O)N[C@H](CCCCN)C(=O)N[C@H](CC(C)C)C(=O)N[C@H](CCCNC(=N)N)C(=O)N[C@H](Cc7c[nH]cn7)C(=O)O)C6=O)CC5)CC4)cc13)-c1cc3c(c(=O)n1C2)COC(=O)[C@]3(O)CC (stereo partly drawn) [DPV51(D)-linker #5-SN38] (H-[ξC](X6)[dK][dR]G[dL][dK][dL][dR][dH]-OH; N-terminus and C-terminus assumed)
[1]; Table 12, CPP-linker #5-SN38 conjugates incl. D conformation
  half-life: 175 min
[2]; Table 12, CPP-linker #5-SN38 conjugates incl. D conformation, read-out: Human Plasma Half life time
  half-life: 267 min

## CCc1c2c(nc3ccc(OC(=O)[C@H]4CC[C@H](CNC(=O)C5CCC(CN6C(=O)CC(SC[C@H](NC(=O)[C@@H]7CCCN7C(=O)[C@H](CC(=O)O)NC(=O)[C@H](CCCNC(=N)N)NC(=O)[C@H](CCCCN)NC(=O)[C@H](CCCCN)NC(=O)CNC(=O)[C@H](CC(C)C)NC(=O)[C@H](CCCCN)NC(=O)CNC(=O)[C@H](CCCCN)NC(=O)[C@H](CCCCN)NC(=O)[C@H](CCCCN)NC(=O)[C@H](CCCNC(=N)N)NC(=O)[C@H](CCCCN)NC(=O)CN)C(=O)O)C6=O)CC5)CC4)cc13)-c1cc3c(c(=O)n1C2)COC(=O)[C@]3(O)CC (stereo partly drawn) [DPV7-linker #5-SN38] (H-GKRKKKGKLGKKRDPC(X6)-OH; N-terminus and C-terminus assumed)
[1]; Table 10, SN38 conjugates
  half-life: 112 min
[2]; [4]
  half-life: 162 min

## CC[C@@]1(O)C(=O)OCc2c1cc1n(c2=O)Cc2cc3cc(OC(=O)CCCCCNC(=O)C4CCC(CN5C(=O)CC(SC[C@H](NC(=O)[C@H](CCC(N)=O)NC(=O)[C@@H]6CCCN6C(=O)[C@@H]6CCCN6C(=O)[C@H](CCCNC(=N)N)NC(=O)[C@H](CCCNC(=N)N)NC(=O)[C@H](CCCNC(=N)N)NC(=O)[C@H](CCC(N)=O)NC(=O)[C@H](CCCNC(=N)N)NC(=O)[C@H](CCCNC(=N)N)NC(=O)[C@H](CCCCN)NC(=O)[C@H](CCCCN)NC(=O)[C@H](CCCNC(=N)N)NC(=O)CN)C(=O)O)C5=O)CC4)ccc3nc2-1 (stereo partly drawn) [Tat-linker #4-10 Hydroxycamptothecin]
[1]; [6]
  half-life: 20 min
[2]; [7]
  half-life: 7.3 min

## CCc1c2c(nc3ccc(OC(=O)CCN4C(=O)CC(SC[C@H](N)C(=O)N[C@@H](CCCNC(=N)N)C(=O)N[C@@H](CCC(N)=O)C(=O)N[C@H](C(=O)N[C@@H](CCCCN)C(=O)N[C@H](C(=O)N[C@@H](Cc5c[nH]c6ccccc56)C(=O)N[C@@H](Cc5ccccc5)C(=O)N[C@@H](CCC(N)=O)C(=O)N[C@@H](CC(N)=O)C(=O)N[C@@H](CCCNC(=N)N)C(=O)N[C@@H](CCCNC(=N)N)C(=O)N[C@@H](CCSC)C(=O)N[C@@H](CCCCN)C(=O)N[C@@H](Cc5c[nH]c6ccccc56)C(=O)N[C@@H](CCCCN)C(=O)N[C@@H](CCCCN)C(=O)O)[C@@H](C)CC)[C@@H](C)CC)C4=O)cc13)-c1cc3c(c(=O)n1C2)COC(=O)[C@]3(O)CC (stereo partly drawn) [Penetratin-linker #1-SN38]
[1]; Table 10, SN38 conjugates
  half-life: 16.5 min
[2]; [4]
  half-life: < 3 min

## PolyE(16)-MIC-SN38: non cell-penetrating PolyE(16) peptide coupled via MIC linker to SN38 (EEEEEEEEEEEEEEEEC([MIC-SN38]); not fully specified; reading uncertain; also: SN38 attached through MIC linker at Cys) [reference compound]
[3]; 40 μmol/kg, Q4D×3
  activity in the HCT 116 model: not active
[3]; Table 5, Q4Dx3, DPV1047-BCH-SN38 30, PolyE(16)-MIC-SN38 40, irinotecan 48 μmol/kg
  TGI (100-T/C %): 30%

## CCc1c2c(nc3ccc(OC(=O)CCCCCCCCCCN4C(=O)CC(SC[C@H](N)C(=O)N[C@H](C(=O)N[C@@H](CCCCN)C(=O)N[C@@H](CCCNC(=N)N)C(=O)NCC(=O)N[C@@H](CC(C)C)C(=O)N[C@@H](CCCCN)C(=O)N[C@@H](CC(C)C)C(=O)N[C@@H](CCCNC(=N)N)C(=O)N[C@@H](Cc5c[nH]cn5)C(=O)N[C@H](C(=O)N[C@@H](CCCNC(=N)N)C(=O)N5CCC[C@H]5C(=O)N[C@@H](CCCNC(=N)N)C(=O)N[C@H](C(=O)N[C@H](C(=O)N[C@@H](CCCNC(=N)N)C(=O)N[C@@H](CCSC)C(=O)N[C@@H](CC(=O)O)C(=O)N[C@H](C(=O)O)C(C)C)[C@@H](C)O)C(C)C)C(C)C)C(C)C)C4=O)cc13)-c1cc3c(c(=O)n1C2)COC(=O)[C@]3(O)CC (stereo partly drawn) [DPV1047-linker #3-SN38] (H-C(X7)VKRGLKLRHVRPRVTRMDV-OH)
[2]; [8]
  Half life time, Human plasma: 8 to 9 min
[2]; [5]
  half-life: 12 min
